T1: TNFR1 (Homo sapiens, UniProt P19438)
T1 chain: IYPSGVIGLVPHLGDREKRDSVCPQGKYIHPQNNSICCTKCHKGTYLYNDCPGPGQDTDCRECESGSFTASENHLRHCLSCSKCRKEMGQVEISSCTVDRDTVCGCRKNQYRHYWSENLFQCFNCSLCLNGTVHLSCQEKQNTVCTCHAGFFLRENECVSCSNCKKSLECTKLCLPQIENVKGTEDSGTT


Biological target: T1, TNFR1
Assay: yeast display SC50

Binder | apparent Kd (screen) [nM]
A28K (designed binder) MTLQELLREEALRRAEAEAFRYALELLKEKFPEQKEYLLDLAEEIESQIRSLSGVDVEDVRKFLDKEWAWVKELLAEHPAELAEVEAARAARLAELRAEVEAKVAA | 10.4
S53G (designed binder) MTLQELLREEALRRAEAEAFRYALELLAEKFPEQKEYLLDLAEEIESQIRSLGGVDVEDVRKFLDKEWAWVKELLAEHPAELAEVEAARAARLAELRAEVEAKVAA | 2.48
L96S (designed binder) MTLQELLREEALRRAEAEAFRYALELLAEKFPEQKEYLLDLAEEIESQIRSLSGVDVEDVRKFLDKEWAWVKELLAEHPAELAEVEAARAARLAESRAEVEAKVAA | 0.539
K35C (designed binder) MTLQELLREEALRRAEAEAFRYALELLAEKFPEQCEYLLDLAEEIESQIRSLSGVDVEDVRKFLDKEWAWVKELLAEHPAELAEVEAARAARLAELRAEVEAKVAA | 0.446
E73M (designed binder) MTLQELLREEALRRAEAEAFRYALELLAEKFPEQKEYLLDLAEEIESQIRSLSGVDVEDVRKFLDKEWAWVKMLLAEHPAELAEVEAARAARLAELRAEVEAKVAA | 0.653
E44R (designed binder) MTLQELLREEALRRAEAEAFRYALELLAEKFPEQKEYLLDLAERIESQIRSLSGVDVEDVRKFLDKEWAWVKELLAEHPAELAEVEAARAARLAELRAEVEAKVAA | 1.54
K66G (designed binder) MTLQELLREEALRRAEAEAFRYALELLAEKFPEQKEYLLDLAEEIESQIRSLSGVDVEDVRKFLDGEWAWVKELLAEHPAELAEVEAARAARLAELRAEVEAKVAA | 0.539
D40S (designed binder) MTLQELLREEALRRAEAEAFRYALELLAEKFPEQKEYLLSLAEEIESQIRSLSGVDVEDVRKFLDKEWAWVKELLAEHPAELAEVEAARAARLAELRAEVEAKVAA | 0.539
E44V (designed binder) MTLQELLREEALRRAEAEAFRYALELLAEKFPEQKEYLLDLAEVIESQIRSLSGVDVEDVRKFLDKEWAWVKELLAEHPAELAEVEAARAARLAELRAEVEAKVAA | 6.43
V71W (designed binder) MTLQELLREEALRRAEAEAFRYALELLAEKFPEQKEYLLDLAEEIESQIRSLSGVDVEDVRKFLDKEWAWWKELLAEHPAELAEVEAARAARLAELRAEVEAKVAA | 2.48
E10W (designed binder) MTLQELLREWALRRAEAEAFRYALELLAEKFPEQKEYLLDLAEEIESQIRSLSGVDVEDVRKFLDKEWAWVKELLAEHPAELAEVEAARAARLAELRAEVEAKVAA | 2.05
L38S (designed binder) MTLQELLREEALRRAEAEAFRYALELLAEKFPEQKEYSLDLAEEIESQIRSLSGVDVEDVRKFLDKEWAWVKELLAEHPAELAEVEAARAARLAELRAEVEAKVAA | 11.4
E81V (designed binder) MTLQELLREEALRRAEAEAFRYALELLAEKFPEQKEYLLDLAEEIESQIRSLSGVDVEDVRKFLDKEWAWVKELLAEHPAVLAEVEAARAARLAELRAEVEAKVAA | 0.593
A23L (designed binder) MTLQELLREEALRRAEAEAFRYLLELLAEKFPEQKEYLLDLAEEIESQIRSLSGVDVEDVRKFLDKEWAWVKELLAEHPAELAEVEAARAARLAELRAEVEAKVAA | 0.593
D56S (designed binder) MTLQELLREEALRRAEAEAFRYALELLAEKFPEQKEYLLDLAEEIESQIRSLSGVSVEDVRKFLDKEWAWVKELLAEHPAELAEVEAARAARLAELRAEVEAKVAA | 1.27
R13S (designed binder) MTLQELLREEALSRAEAEAFRYALELLAEKFPEQKEYLLDLAEEIESQIRSLSGVDVEDVRKFLDKEWAWVKELLAEHPAELAEVEAARAARLAELRAEVEAKVAA | 0.277
A88S (designed binder) MTLQELLREEALRRAEAEAFRYALELLAEKFPEQKEYLLDLAEEIESQIRSLSGVDVEDVRKFLDKEWAWVKELLAEHPAELAEVEASRAARLAELRAEVEAKVAA | 0.539
P32S (designed binder) MTLQELLREEALRRAEAEAFRYALELLAEKFSEQKEYLLDLAEEIESQIRSLSGVDVEDVRKFLDKEWAWVKELLAEHPAELAEVEAARAARLAELRAEVEAKVAA | 0.49

Binder | apparent Kd (screen) [nM]
E9S (designed binder) MTLQELLRSEALRRAEAEAFRYALELLAEKFPEQKEYLLDLAEEIESQIRSLSGVDVEDVRKFLDKEWAWVKELLAEHPAELAEVEAARAARLAELRAEVEAKVAA | 0.869
L74Y (designed binder) MTLQELLREEALRRAEAEAFRYALELLAEKFPEQKEYLLDLAEEIESQIRSLSGVDVEDVRKFLDKEWAWVKEYLAEHPAELAEVEAARAARLAELRAEVEAKVAA | 0.869
L74Q (designed binder) MTLQELLREEALRRAEAEAFRYALELLAEKFPEQKEYLLDLAEEIESQIRSLSGVDVEDVRKFLDKEWAWVKEQLAEHPAELAEVEAARAARLAELRAEVEAKVAA | 1.54
L52Q (designed binder) MTLQELLREEALRRAEAEAFRYALELLAEKFPEQKEYLLDLAEEIESQIRSQSGVDVEDVRKFLDKEWAWVKELLAEHPAELAEVEAARAARLAELRAEVEAKVAA | 0.539
V55I (designed binder) MTLQELLREEALRRAEAEAFRYALELLAEKFPEQKEYLLDLAEEIESQIRSLSGIDVEDVRKFLDKEWAWVKELLAEHPAELAEVEAARAARLAELRAEVEAKVAA | 0.539
L64A (designed binder) MTLQELLREEALRRAEAEAFRYALELLAEKFPEQKEYLLDLAEEIESQIRSLSGVDVEDVRKFADKEWAWVKELLAEHPAELAEVEAARAARLAELRAEVEAKVAA | 13.8
V57P (designed binder) MTLQELLREEALRRAEAEAFRYALELLAEKFPEQKEYLLDLAEEIESQIRSLSGVDPEDVRKFLDKEWAWVKELLAEHPAELAEVEAARAARLAELRAEVEAKVAA | 1.54
E95Y (designed binder) MTLQELLREEALRRAEAEAFRYALELLAEKFPEQKEYLLDLAEEIESQIRSLSGVDVEDVRKFLDKEWAWVKELLAEHPAELAEVEAARAARLAYLRAEVEAKVAA | 0.718
L24N (designed binder) MTLQELLREEALRRAEAEAFRYANELLAEKFPEQKEYLLDLAEEIESQIRSLSGVDVEDVRKFLDKEWAWVKELLAEHPAELAEVEAARAARLAELRAEVEAKVAA | 0.405
L82I (designed binder) MTLQELLREEALRRAEAEAFRYALELLAEKFPEQKEYLLDLAEEIESQIRSLSGVDVEDVRKFLDKEWAWVKELLAEHPAEIAEVEAARAARLAELRAEVEAKVAA | 0.49
V104M (designed binder) MTLQELLREEALRRAEAEAFRYALELLAEKFPEQKEYLLDLAEEIESQIRSLSGVDVEDVRKFLDKEWAWVKELLAEHPAELAEVEAARAARLAELRAEVEAKMAA | 0.653
P79T (designed binder) MTLQELLREEALRRAEAEAFRYALELLAEKFPEQKEYLLDLAEEIESQIRSLSGVDVEDVRKFLDKEWAWVKELLAEHTAELAEVEAARAARLAELRAEVEAKVAA | 0.653
E43W (designed binder) MTLQELLREEALRRAEAEAFRYALELLAEKFPEQKEYLLDLAWEIESQIRSLSGVDVEDVRKFLDKEWAWVKELLAEHPAELAEVEAARAARLAELRAEVEAKVAA | 0.539
S53E (designed binder) MTLQELLREEALRRAEAEAFRYALELLAEKFPEQKEYLLDLAEEIESQIRSLEGVDVEDVRKFLDKEWAWVKELLAEHPAELAEVEAARAARLAELRAEVEAKVAA | 2.25
A83Q (designed binder) MTLQELLREEALRRAEAEAFRYALELLAEKFPEQKEYLLDLAEEIESQIRSLSGVDVEDVRKFLDKEWAWVKELLAEHPAELQEVEAARAARLAELRAEVEAKVAA | 0.446
P79Q (designed binder) MTLQELLREEALRRAEAEAFRYALELLAEKFPEQKEYLLDLAEEIESQIRSLSGVDVEDVRKFLDKEWAWVKELLAEHQAELAEVEAARAARLAELRAEVEAKVAA | 0.593
K30F (designed binder) MTLQELLREEALRRAEAEAFRYALELLAEFFPEQKEYLLDLAEEIESQIRSLSGVDVEDVRKFLDKEWAWVKELLAEHPAELAEVEAARAARLAELRAEVEAKVAA | 0.539

— article PMC12416549 (2024)
